Results on 27 molecules are retold here after paper PMC10786891, “Massively parallel profiling of RNA-targeting CRISPR-Cas13d”.

What is called Kd is the equilibrium constant for the complex coming apart. Higher therefore signals lower affinity.

The labels stand for the following.
T1: EsCas13d, nuclease-dead (Eubacterium siraeum, UniProt B0MS50, R295A;H300A;R849A;H854A)
T1 sequence: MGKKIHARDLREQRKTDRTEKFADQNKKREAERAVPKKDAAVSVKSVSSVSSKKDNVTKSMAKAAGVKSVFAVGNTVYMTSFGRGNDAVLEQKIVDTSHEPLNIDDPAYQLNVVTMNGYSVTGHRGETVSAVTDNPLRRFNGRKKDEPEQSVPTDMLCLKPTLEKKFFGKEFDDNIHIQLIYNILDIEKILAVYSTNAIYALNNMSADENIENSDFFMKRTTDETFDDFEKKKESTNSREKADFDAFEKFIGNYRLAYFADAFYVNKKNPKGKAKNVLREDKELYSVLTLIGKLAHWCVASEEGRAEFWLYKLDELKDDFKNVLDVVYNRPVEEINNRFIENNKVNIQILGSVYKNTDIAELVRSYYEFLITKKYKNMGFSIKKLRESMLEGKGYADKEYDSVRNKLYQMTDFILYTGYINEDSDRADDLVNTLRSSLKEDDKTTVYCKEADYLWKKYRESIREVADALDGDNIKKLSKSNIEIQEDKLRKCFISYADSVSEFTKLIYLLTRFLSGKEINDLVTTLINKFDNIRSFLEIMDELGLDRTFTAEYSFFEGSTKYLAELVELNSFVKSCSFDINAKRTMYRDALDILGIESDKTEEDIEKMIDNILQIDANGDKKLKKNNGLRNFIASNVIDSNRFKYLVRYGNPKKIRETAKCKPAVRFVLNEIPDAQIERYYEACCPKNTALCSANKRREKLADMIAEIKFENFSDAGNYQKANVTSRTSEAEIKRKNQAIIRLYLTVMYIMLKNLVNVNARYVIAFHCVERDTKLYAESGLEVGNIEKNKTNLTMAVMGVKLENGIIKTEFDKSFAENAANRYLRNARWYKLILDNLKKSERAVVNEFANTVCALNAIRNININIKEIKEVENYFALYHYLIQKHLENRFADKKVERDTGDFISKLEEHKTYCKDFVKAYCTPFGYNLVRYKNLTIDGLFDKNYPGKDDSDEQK

B1: target 1 MT 5'PFS AGA 3'PFS CGC (mixed)
RNA 1: CACCCGUGCAAAAAUGCAGGGGUCUAAAACUGAGCGGAUAACCUCUCUAUGG
RNA 2: GGGAAUGGAUCCACAUCUACGAAUUCAGACCAUAGAGAGGUUAUCCGCUCACGCAGAUCGGAAGAGCACACGU
B2: target 1 MT 5'PFS GAA 3'PFS UUG (mixed)
RNA 1: CACCCGUGCAAAAAUGCAGGGGUCUAAAACUGAGCGGAUAACCUCUCUAUGG
RNA 2: GGGAAUGGAUCCACAUCUACGAAUUCGAACCAUAGAGAGGUUAUCCGCUCAUUGAGAUCGGAAGAGCACACGU
B3: target 1 MT 5'PFS AGG 3'PFS AUU (mixed)
RNA 1: CACCCGUGCAAAAAUGCAGGGGUCUAAAACUGAGCGGAUAACCUCUCUAUGG
RNA 2: GGGAAUGGAUCCACAUCUACGAAUUCAGGCCAUAGAGAGGUUAUCCGCUCAAUUAGAUCGGAAGAGCACACGU
B4: target 1 MT 5'PFS GAA 3'PFS UUU (mixed)
RNA 1: CACCCGUGCAAAAAUGCAGGGGUCUAAAACUGAGCGGAUAACCUCUCUAUGG
RNA 2: GGGAAUGGAUCCACAUCUACGAAUUCGAACCAUAGAGAGGUUAUCCGCUCAUUUAGAUCGGAAGAGCACACGU
B5: target 1 MT 5'PFS UCG 3'PFS CAA (mixed)
RNA 1: CACCCGUGCAAAAAUGCAGGGGUCUAAAACUGAGCGGAUAACCUCUCUAUGG
RNA 2: GGGAAUGGAUCCACAUCUACGAAUUCUCGCCAUAGAGAGGUUAUCCGCUCACAAAGAUCGGAAGAGCACACGU
B6: target 1 MT 5'PFS ACA 3'PFS UCG (mixed)
RNA 1: CACCCGUGCAAAAAUGCAGGGGUCUAAAACUGAGCGGAUAACCUCUCUAUGG
RNA 2: GGGAAUGGAUCCACAUCUACGAAUUCACACCAUAGAGAGGUUAUCCGCUCAUCGAGAUCGGAAGAGCACACGU
B7: target 1 MT 5'PFS CUU 3'PFS UGC (mixed)
RNA 1: CACCCGUGCAAAAAUGCAGGGGUCUAAAACUGAGCGGAUAACCUCUCUAUGG
RNA 2: GGGAAUGGAUCCACAUCUACGAAUUCCUUCCAUAGAGAGGUUAUCCGCUCAUGCAGAUCGGAAGAGCACACGU
B8: target 1 MT 5'PFS GAA 3'PFS UUA (mixed)
RNA 1: CACCCGUGCAAAAAUGCAGGGGUCUAAAACUGAGCGGAUAACCUCUCUAUGG
RNA 2: GGGAAUGGAUCCACAUCUACGAAUUCGAACCAUAGAGAGGUUAUCCGCUCAUUAAGAUCGGAAGAGCACACGU
B9: target 1 MT 5'PFS CAC 3'PFS ACG (mixed)
RNA 1: CACCCGUGCAAAAAUGCAGGGGUCUAAAACUGAGCGGAUAACCUCUCUAUGG
RNA 2: GGGAAUGGAUCCACAUCUACGAAUUCCACCCAUAGAGAGGUUAUCCGCUCAACGAGAUCGGAAGAGCACACGU
B10: target 1 MT 5'PFS UCG 3'PFS CAC (mixed)
RNA 1: CACCCGUGCAAAAAUGCAGGGGUCUAAAACUGAGCGGAUAACCUCUCUAUGG
RNA 2: GGGAAUGGAUCCACAUCUACGAAUUCUCGCCAUAGAGAGGUUAUCCGCUCACACAGAUCGGAAGAGCACACGU
B11: target 1 C4A,A14G (mixed)
RNA 1: CACCCGUGCAAAAAUGCAGGGGUCUAAAACUGAGCGGAUAACCUCUCUAUGG
RNA 2: GGGAAUGGAUCCACAUCUACGAAUUCGUACCAUAGAGGGGUUAUCCGAUCACCGAGAUCGGAAGAGCACACGU
B12: target 1 MT 5'PFS AGG 3'PFS AUA (mixed)
RNA 1: CACCCGUGCAAAAAUGCAGGGGUCUAAAACUGAGCGGAUAACCUCUCUAUGG
RNA 2: GGGAAUGGAUCCACAUCUACGAAUUCAGGCCAUAGAGAGGUUAUCCGCUCAAUAAGAUCGGAAGAGCACACGU
B13: target 1 MT 5'PFS GAC 3'PFS ACU (mixed)
RNA 1: CACCCGUGCAAAAAUGCAGGGGUCUAAAACUGAGCGGAUAACCUCUCUAUGG
RNA 2: GGGAAUGGAUCCACAUCUACGAAUUCGACCCAUAGAGAGGUUAUCCGCUCAACUAGAUCGGAAGAGCACACGU
B14: target 1 MT 5'PFS GAA 3'PFS UUC (mixed)
RNA 1: CACCCGUGCAAAAAUGCAGGGGUCUAAAACUGAGCGGAUAACCUCUCUAUGG
RNA 2: GGGAAUGGAUCCACAUCUACGAAUUCGAACCAUAGAGAGGUUAUCCGCUCAUUCAGAUCGGAAGAGCACACGU
B15: target 1 MT 5'PFS GAC 3'PFS ACA (mixed)
RNA 1: CACCCGUGCAAAAAUGCAGGGGUCUAAAACUGAGCGGAUAACCUCUCUAUGG
RNA 2: GGGAAUGGAUCCACAUCUACGAAUUCGACCCAUAGAGAGGUUAUCCGCUCAACAAGAUCGGAAGAGCACACGU
B16: target 1 MT 5'PFS AAA 3'PFS CUG (mixed)
RNA 1: CACCCGUGCAAAAAUGCAGGGGUCUAAAACUGAGCGGAUAACCUCUCUAUGG
RNA 2: GGGAAUGGAUCCACAUCUACGAAUUCAAACCAUAGAGAGGUUAUCCGCUCACUGAGAUCGGAAGAGCACACGU
B17: target 1 MT 5'PFS CAC 3'PFS ACA (mixed)
RNA 1: CACCCGUGCAAAAAUGCAGGGGUCUAAAACUGAGCGGAUAACCUCUCUAUGG
RNA 2: GGGAAUGGAUCCACAUCUACGAAUUCCACCCAUAGAGAGGUUAUCCGCUCAACAAGAUCGGAAGAGCACACGU
B18: target 1 MT 5'PFS UGC 3'PFS AGA (mixed)
RNA 1: CACCCGUGCAAAAAUGCAGGGGUCUAAAACUGAGCGGAUAACCUCUCUAUGG
RNA 2: GGGAAUGGAUCCACAUCUACGAAUUCUGCCCAUAGAGAGGUUAUCCGCUCAAGAAGAUCGGAAGAGCACACGU
B19: target 1 MT 5'PFS CAC 3'PFS ACU (mixed)
RNA 1: CACCCGUGCAAAAAUGCAGGGGUCUAAAACUGAGCGGAUAACCUCUCUAUGG
RNA 2: GGGAAUGGAUCCACAUCUACGAAUUCCACCCAUAGAGAGGUUAUCCGCUCAACUAGAUCGGAAGAGCACACGU
B20: target 1 insU 3' of 17,insA 3' of 5 (mixed)
RNA 1: CACCCGUGCAAAAAUGCAGGGGUCUAAAACUGAGCGGAUAACCUCUCUAUGG
RNA 2: GGGAAUGGAUCCACAUCUACGAAUUCGUACCAUAGUAGAGGUUAUCCGACUCACCGAGAUCGGAAGAGCACACGU
B21: target 1 MT 5'PFS GAC 3'PFS ACC (mixed)
RNA 1: CACCCGUGCAAAAAUGCAGGGGUCUAAAACUGAGCGGAUAACCUCUCUAUGG
RNA 2: GGGAAUGGAUCCACAUCUACGAAUUCGACCCAUAGAGAGGUUAUCCGCUCAACCAGAUCGGAAGAGCACACGU
B22: target 1 insU 3' of 18,insG 3' of 16 (mixed)
RNA 1: CACCCGUGCAAAAAUGCAGGGGUCUAAAACUGAGCGGAUAACCUCUCUAUGG
RNA 2: GGGAAUGGAUCCACAUCUACGAAUUCGUACCAUAUGAGGAGGUUAUCCGCUCACCGAGAUCGGAAGAGCACACGU
B23: target 1 MT 5'PFS CUU 3'PFS AGU (mixed)
RNA 1: CACCCGUGCAAAAAUGCAGGGGUCUAAAACUGAGCGGAUAACCUCUCUAUGG
RNA 2: GGGAAUGGAUCCACAUCUACGAAUUCCUUCCAUAGAGAGGUUAUCCGCUCAAGUAGAUCGGAAGAGCACACGU
B24: target 1 MT 5'PFS UCG 3'PFS CAU (mixed)
RNA 1: CACCCGUGCAAAAAUGCAGGGGUCUAAAACUGAGCGGAUAACCUCUCUAUGG
RNA 2: GGGAAUGGAUCCACAUCUACGAAUUCUCGCCAUAGAGAGGUUAUCCGCUCACAUAGAUCGGAAGAGCACACGU
B25: target 1 MT 5'PFS ACA 3'PFS UCU (mixed)
RNA 1: CACCCGUGCAAAAAUGCAGGGGUCUAAAACUGAGCGGAUAACCUCUCUAUGG
RNA 2: GGGAAUGGAUCCACAUCUACGAAUUCACACCAUAGAGAGGUUAUCCGCUCAUCUAGAUCGGAAGAGCACACGU
B26: target 1 MT 5'PFS UCC 3'PFS CGA (mixed)
RNA 1: CACCCGUGCAAAAAUGCAGGGGUCUAAAACUGAGCGGAUAACCUCUCUAUGG
RNA 2: GGGAAUGGAUCCACAUCUACGAAUUCUCCCCAUAGAGAGGUUAUCCGCUCACGAAGAUCGGAAGAGCACACGU
B27: target 1 MT 5'PFS AGA 3'PFS CGA (mixed)
RNA 1: CACCCGUGCAAAAAUGCAGGGGUCUAAAACUGAGCGGAUAACCUCUCUAUGG
RNA 2: GGGAAUGGAUCCACAUCUACGAAUUCAGACCAUAGAGAGGUUAUCCGCUCACGAAGAUCGGAAGAGCACACGU

The target of the data set is T1, EsCas13d, nuclease-dead. In words: crRNA (strand 1, pre-loaded); Mg2+; 40 mM Tris-HCl pH 7.5, 150 mM NaCl, 6 mM MgCl2, 1 mM DTT, 0.1% Tween-20, 0.2 mg/ml BSA; 25 C; 10 min per concentration, then washed. Conditions: tags: His6-TwinStrep-SUMO cleaved; N-terminal SNAP kept (SNAP-Surface 488); label: 3' end held by stalled T7 RNA polymerase.
With B1, the Kd came out at 37 ± 11 nM. Take B2: binding was put at a Kd of 12.8 ± 2.6 nM. In turn, B3 returned a Kd of 26.5 ± 7 nM. B4 had a Kd of 15.3 ± 2.75 nM. With B5, the dissociation constant (Kd) is ~44 nM. In turn, B6 had a Kd of 7.7 ± 1.55 nM. B7 registered a Kd of 22 ± 7 nM.

B8 gave a Kd of 16 ± 2.15 nM.

For the molecule B9, the Kd is ~22 nM. On to B10, for which the Kd is ~43.5 nM.

Consider B11, for which the Kd was 14.8 ± 1.5 nM. As for B12, the Kd turned out to be 26.5 ± 8.5 nM. The molecule B13 showed a Kd of 14 ± 5 nM. The molecule B14 yielded a Kd of 51 ± 21 nM. In the case of B15 it was ~46 nM; in that of B16, 22.5 ± 5 nM. The same measure for B17: ~45.5 nM.

As for B18, the Kd is ~23 nM. In the case of B19 it was 21 ± 7.5 nM; in that of B20, 19 ± 4 nM. The same measure for B21: 75.5 ± 37.5 nM; for B22: 73 ± 31 nM; for B23: 48 ± 12.5 nM. In the case of B24, the Kd was ~80 nM.

As for B25, binding was put at a Kd of 7.4 ± 2.8 nM. On to B26, for which the dissociation constant (Kd) is ~48.5 nM. On to B27, for which the dissociation constant Kd was ~90 nM.
